Columns and labels:
[1] = molecular target: reductively methylated calmodulin (UniProt P0DP23); assay: NMR titration; 1H-13C HSQC of 1 µM reductively methylated CaM with 0, 0.5, 1 and 1.5 µM FM-HVR (peptide not aggregated); 25 °C; 50 mM Tris-citrate pH 6.5, 50 mM NaCl, 5 mM MgCl2, 10 mM β-mercaptoethanol, 10 mM CaCl2
[2] = molecular target: reductively methylated calmodulin (UniProt P0DP23); assay: NMR titration; 1H-13C HSQC of 70 µM reductively methylated CaM with FM-HVR at 0:1, 1:1, 2:1 and 3:1 molar ratios (aggregated FM-HVR); 25 °C; 50 mM Tris-citrate pH 6.5, 50 mM NaCl, 5 mM MgCl2, 10 mM β-mercaptoethanol, 10 mM CaCl2
[3] = molecular target: fully post-translationally modified (farnesylated and methylated) hypervariable region peptide of K-Ras4B (human); assay: pyrene fluorescence (critical aggregation concentration); peptide at different concentrations with 2 µM pyrene in PBS; excitation scans 315-360 nm, emission 393 nm; ratio I334/I337 against the logarithm of the peptide concentration
[4] = Dynamic light scattering particle size analysis; format: physicochemical; conditions: DLS, 0.25 mM (250 μM) FM-HVR in PBS, room temperature
From the text: This roughly corresponds to the monomeric form of peptide. However, upon introduction of farnesylation and methylation the hydrodynamic radius of the peptide increased to 8.15 ± 0.46 nm at a four times lower concentration as shown in Figure 2B. This hydrodynamic radius corresponded to a particle of 471.92 ± 63.75 kDa in size. Observation of higher order assemblies of FM-HVR allowed us to conclude that post-translational modifications in K-Ras can lead to aggregation through hydrophobic interactions.
For studying aggregation of peptides, dynamic light scattering experiments were performed on a DynaPro-801 molecular sizing instrument (Wyatt Technology Europe, Dernbach, Germany). The peptide samples were dialyzed against PBS. The sample volume of 250 μL was used for the experiments. […] Samples were centrifuged at 12000 rpm for 10 min before experiments. Analysis of the data was carried out using Dynamics software.

Row | Compound | FM-HVR to CaM titration ratio at saturation (FM-HVR per CaM) [1] | FM-HVR to CaM titration ratio at saturation (FM-HVR per CaM) [2] | critical aggregation concentration [3] | hydrodynamic radius [4] | particle mass corresponding to hydrodynamic radius [4]
1 | fully post-translationally modified (farnesylated and methylated) hypervariable region peptide of K-Ras4B | 1 | 2 | > 10 µM | – | –
2 | COC(=O)[C@H](CSC/C=C(\C)CC/C=C(\C)CCC=C(C)C)NC(=O)C1CCC(CN2C(=O)CC(SC[C@H](NC(=O)[C@H](CCCCN)NC(=O)[C@H](CO)NC(=O)[C@H](CCCCN)NC(=O)[C@H](CCCCN)NC(=O)[C@H](CCCCN)NC(=O)[C@H](CCCCN)NC(=O)[C@H](CCCCN)NC(=O)[C@H](CCCCN)NC(=O)CNC(=O)[C@H](CC(=O)O)NC(=O)[C@H](CCCCN)NC(=O)[C@H](CO)NC(=O)[C@H](CCSC)NC(=O)[C@H](CCCCN)NC(=O)[C@H](CCC(=O)O)NC(=O)[C@@H](N)CCCCN)C(=O)O)C2=O)CC1 (some centres unmarked) [FM-HVR] | – | – | – | 8.15 ± 0.46 nm | 471.92 ± 63.75 kDa

Source: paper PMC6270119, “Application of Reductive ^13C-Methylation of Lysines to Enhance the Sensitivity of Conventional NMR Methods” (Molecules, 2013)
